Source: patent publication US20180140578A1 (University of Texas, published 2018)
Each block holds one binder with its values, some of them ahead of it.

Experiments:
DCAF15-3xFLAG [1] = molecular target: T1, DCAF15-3xFLAG (human, UniProt Q66K64 1-600); test: pull-down of 100 nM RBM39Δ150 P272S by DCAF15-3xFLAG on anti-FLAG beads with rising indisulam, western blot (FIG. 4C)
T1 construct: also called DDB1/DCAF15-3xFLAG; not shown: C-terminal 3xFLAG tag

DCAF15-3xFLAG [2] = molecular target: T1, DCAF15-3xFLAG; test: pull-down by DCAF15-3xFLAG on anti-FLAG beads, western blot (FIG. 4C)
DDB1 = molecular target: T2, DDB1 (human, UniProt Q16531 2-1140); test: anti-FLAG immunopurification from HCT-116 lysate supplemented with indisulam, western blot (FIG. 4A)
T2 construct: also called Q16531_DDB1_HUMAN

CUL4A = molecular target: T3, CUL4A (human, UniProt Q13619 1-759, limits assumed); test: anti-FLAG co-immunoprecipitation from HCT-116 cells, western blot (FIG. 3E)
T3 construct: also called Cullin 4A

CUL4B = molecular target: T4, CUL4B (human, UniProt Q13620 1-913, limits assumed); test: as above
T4 construct: also called Cullin 4B
T4 sequence (Q13620 whole entry): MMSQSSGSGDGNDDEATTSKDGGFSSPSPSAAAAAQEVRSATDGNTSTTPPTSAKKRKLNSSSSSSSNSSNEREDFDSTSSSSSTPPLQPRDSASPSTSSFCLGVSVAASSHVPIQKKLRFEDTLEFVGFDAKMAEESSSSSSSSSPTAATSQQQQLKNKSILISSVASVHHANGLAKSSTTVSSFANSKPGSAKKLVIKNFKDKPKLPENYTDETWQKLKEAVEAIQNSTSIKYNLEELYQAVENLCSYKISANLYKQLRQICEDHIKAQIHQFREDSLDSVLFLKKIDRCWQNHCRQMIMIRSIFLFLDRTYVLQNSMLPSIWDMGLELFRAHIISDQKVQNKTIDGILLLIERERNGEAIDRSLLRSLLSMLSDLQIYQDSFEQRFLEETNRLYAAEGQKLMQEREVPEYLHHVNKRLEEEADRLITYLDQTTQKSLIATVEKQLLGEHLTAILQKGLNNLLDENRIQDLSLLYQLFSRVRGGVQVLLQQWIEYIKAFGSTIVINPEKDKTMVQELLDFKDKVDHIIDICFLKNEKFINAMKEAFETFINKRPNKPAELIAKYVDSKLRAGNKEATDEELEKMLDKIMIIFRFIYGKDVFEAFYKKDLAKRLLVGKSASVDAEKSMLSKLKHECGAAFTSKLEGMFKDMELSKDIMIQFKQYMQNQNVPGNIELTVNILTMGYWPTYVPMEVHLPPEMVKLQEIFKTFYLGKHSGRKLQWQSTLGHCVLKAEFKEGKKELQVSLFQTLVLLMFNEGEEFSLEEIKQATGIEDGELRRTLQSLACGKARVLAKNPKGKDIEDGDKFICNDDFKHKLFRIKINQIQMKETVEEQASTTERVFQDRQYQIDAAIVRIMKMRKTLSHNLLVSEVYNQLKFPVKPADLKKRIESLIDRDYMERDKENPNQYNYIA

T1 sequence (Q66K64 whole entry): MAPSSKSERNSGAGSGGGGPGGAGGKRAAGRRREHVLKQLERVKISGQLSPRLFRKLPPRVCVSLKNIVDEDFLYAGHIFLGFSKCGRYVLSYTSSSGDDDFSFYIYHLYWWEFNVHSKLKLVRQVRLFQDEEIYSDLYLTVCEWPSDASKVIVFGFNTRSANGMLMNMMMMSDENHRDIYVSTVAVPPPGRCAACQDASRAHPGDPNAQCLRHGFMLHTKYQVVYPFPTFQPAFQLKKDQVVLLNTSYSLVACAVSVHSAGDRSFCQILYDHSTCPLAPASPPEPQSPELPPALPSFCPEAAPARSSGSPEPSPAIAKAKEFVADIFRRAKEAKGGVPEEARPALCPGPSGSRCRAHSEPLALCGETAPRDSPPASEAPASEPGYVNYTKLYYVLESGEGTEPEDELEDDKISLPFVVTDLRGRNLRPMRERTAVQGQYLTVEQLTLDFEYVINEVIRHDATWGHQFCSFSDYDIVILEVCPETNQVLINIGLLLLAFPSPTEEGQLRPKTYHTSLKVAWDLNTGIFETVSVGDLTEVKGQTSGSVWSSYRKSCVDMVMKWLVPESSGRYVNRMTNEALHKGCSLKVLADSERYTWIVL
T2 sequence (Q16531 2-1140 limits assumed): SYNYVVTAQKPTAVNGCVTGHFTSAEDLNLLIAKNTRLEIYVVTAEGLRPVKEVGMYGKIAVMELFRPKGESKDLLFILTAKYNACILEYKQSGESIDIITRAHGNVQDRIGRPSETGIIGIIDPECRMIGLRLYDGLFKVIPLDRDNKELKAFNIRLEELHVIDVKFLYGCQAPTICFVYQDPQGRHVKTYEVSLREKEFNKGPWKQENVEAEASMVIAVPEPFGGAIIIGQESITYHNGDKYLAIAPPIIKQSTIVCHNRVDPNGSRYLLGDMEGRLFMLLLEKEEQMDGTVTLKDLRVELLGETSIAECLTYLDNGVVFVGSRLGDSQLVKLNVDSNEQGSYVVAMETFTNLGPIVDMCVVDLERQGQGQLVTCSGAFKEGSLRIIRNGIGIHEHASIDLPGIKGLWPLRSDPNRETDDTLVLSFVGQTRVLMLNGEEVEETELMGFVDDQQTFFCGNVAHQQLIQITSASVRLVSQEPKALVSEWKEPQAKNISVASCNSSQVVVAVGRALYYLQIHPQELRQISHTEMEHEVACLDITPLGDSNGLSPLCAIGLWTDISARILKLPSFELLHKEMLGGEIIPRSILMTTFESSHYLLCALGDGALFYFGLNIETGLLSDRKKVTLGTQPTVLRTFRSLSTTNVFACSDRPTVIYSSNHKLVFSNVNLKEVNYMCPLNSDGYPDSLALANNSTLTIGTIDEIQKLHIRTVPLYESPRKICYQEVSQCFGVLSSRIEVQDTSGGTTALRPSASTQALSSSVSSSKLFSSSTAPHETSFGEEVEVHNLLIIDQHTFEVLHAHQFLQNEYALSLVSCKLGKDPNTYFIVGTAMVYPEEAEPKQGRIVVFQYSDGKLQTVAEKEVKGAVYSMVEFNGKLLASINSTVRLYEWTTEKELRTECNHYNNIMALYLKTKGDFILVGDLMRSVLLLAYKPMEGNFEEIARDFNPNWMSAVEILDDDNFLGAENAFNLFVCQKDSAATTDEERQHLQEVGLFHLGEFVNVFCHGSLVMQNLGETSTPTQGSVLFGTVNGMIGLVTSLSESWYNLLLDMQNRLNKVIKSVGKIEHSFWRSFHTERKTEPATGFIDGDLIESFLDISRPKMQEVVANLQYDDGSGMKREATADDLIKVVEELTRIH
T3 sequence (Q13619 whole entry): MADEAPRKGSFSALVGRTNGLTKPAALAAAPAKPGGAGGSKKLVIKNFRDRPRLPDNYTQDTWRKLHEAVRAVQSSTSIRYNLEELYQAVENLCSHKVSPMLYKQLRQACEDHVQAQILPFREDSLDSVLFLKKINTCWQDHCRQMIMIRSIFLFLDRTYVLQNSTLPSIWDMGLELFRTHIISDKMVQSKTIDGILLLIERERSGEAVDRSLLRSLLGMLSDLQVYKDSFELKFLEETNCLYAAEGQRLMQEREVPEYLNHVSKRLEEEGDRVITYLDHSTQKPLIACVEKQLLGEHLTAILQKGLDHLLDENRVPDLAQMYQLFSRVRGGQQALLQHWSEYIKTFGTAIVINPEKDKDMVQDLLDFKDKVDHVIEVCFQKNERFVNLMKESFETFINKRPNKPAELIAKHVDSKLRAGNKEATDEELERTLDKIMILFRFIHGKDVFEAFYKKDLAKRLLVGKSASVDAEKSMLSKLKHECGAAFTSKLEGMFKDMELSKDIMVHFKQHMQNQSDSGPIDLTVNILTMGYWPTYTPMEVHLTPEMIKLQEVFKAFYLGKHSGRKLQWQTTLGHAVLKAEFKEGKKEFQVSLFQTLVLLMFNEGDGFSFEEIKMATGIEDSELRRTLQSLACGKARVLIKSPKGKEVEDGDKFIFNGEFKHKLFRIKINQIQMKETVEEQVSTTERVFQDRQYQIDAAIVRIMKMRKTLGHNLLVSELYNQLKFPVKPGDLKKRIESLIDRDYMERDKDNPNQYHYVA

- fold higher indisulam concentration required for recruitment, against wild type RBM39Δ150 (DCAF15-3xFLAG [1]): 100 fold
B1: RBM39Δ150 P272S (other, human, UniProt Q14498 151-530, looked up)
chain: DARTVFCMQLAARIRPRDLEEFFSTVGKVRDVRMISDRNSRRSKGIAYVEFVDVSSVPLAIGLTGQRVLGVPIIVQASQAEKNRAAAMANNLQKGSAGPMRLYVGSLHFNITEDMLRGIFESFGRIESIQLMMDSETGRSKGYGFITFSDSECAKKALEQLNGFELAGRPMKVGHVTERTDASSASSFLDSDELERTGIDLGTTGRLQLMARLAEGTGLQIPPAAQQALQMSGSLAFGAVAEFSFVIDLQTRLSQQTEASALAAAASVQPLATQCFQLSNMFNPQTEEEVGWDTEIKDDVIEECNKHGGVIHIYVDKNSAQGNVYVKCPSIAAAIAAVNALHGRWFAGKMITAAYVPLPTYHNLFPDSMTATQLLVPSRR
notes: domain: RRM1, RRM2, and RRM3 domains; Sf9 expression as for RBM39Δ150

- binding result (DCAF15-3xFLAG [2]): no binding (tested: 10 µM indisulam)
B2: RBM39Δ150 E271Q (other, human, UniProt Q14498 151-530, looked up)
chain: DARTVFCMQLAARIRPRDLEEFFSTVGKVRDVRMISDRNSRRSKGIAYVEFVDVSSVPLAIGLTGQRVLGVPIIVQASQAEKNRAAAMANNLQKGSAGPMRLYVGSLHFNITEDMLRGIFQPFGRIESIQLMMDSETGRSKGYGFITFSDSECAKKALEQLNGFELAGRPMKVGHVTERTDASSASSFLDSDELERTGIDLGTTGRLQLMARLAEGTGLQIPPAAQQALQMSGSLAFGAVAEFSFVIDLQTRLSQQTEASALAAAASVQPLATQCFQLSNMFNPQTEEEVGWDTEIKDDVIEECNKHGGVIHIYVDKNSAQGNVYVKCPSIAAAIAAVNALHGRWFAGKMITAAYVPLPTYHNLFPDSMTATQLLVPSRR
notes: domain: RRM1, RRM2, and RRM3 domains; Sf9 expression as for RBM39Δ150; also called E271Q variant of RBM39Δ150

- binding result (DDB1): no binding (tested: 10 µM indisulam)
- binding result (CUL4A): no binding (tested: 10 µM indisulam)
- binding result (CUL4B): no binding (tested: 10 µM indisulam)
B3: RBM39 G268V-3xFLAG (other, human, UniProt Q14498 1-530, looked up)
chain: MADDIDIEAMLEAPYKKDENKLSSANGHEERSKKRKKSKSRSRSHERKRSKSKERKRSRDRERKKSKSRERKRSRSKERRRSRSRSRDRRFRGRYRSPYSGPKFNSAIRGKIGLPHSIKLSRRRSRSKSPFRKDKSPVREPIDNLTPEERDARTVFCMQLAARIRPRDLEEFFSTVGKVRDVRMISDRNSRRSKGIAYVEFVDVSSVPLAIGLTGQRVLGVPIIVQASQAEKNRAAAMANNLQKGSAGPMRLYVGSLHFNITEDMLRVIFEPFGRIESIQLMMDSETGRSKGYGFITFSDSECAKKALEQLNGFELAGRPMKVGHVTERTDASSASSFLDSDELERTGIDLGTTGRLQLMARLAEGTGLQIPPAAQQALQMSGSLAFGAVAEFSFVIDLQTRLSQQTEASALAAAASVQPLATQCFQLSNMFNPQTEEEVGWDTEIKDDVIEECNKHGGVIHIYVDKNSAQGNVYVKCPSIAAAIAAVNALHGRWFAGKMITAAYVPLPTYHNLFPDSMTATQLLVPSRR
notes: From HCT-116 cells; for the ubiquitination assay expressed from pCDNA3.1 in 293T cells; also called RBM39-3xFLAG G268V; not shown: C-terminal 3xFLAG tag
